Reference: patent US20250313635A1 (Merck Sharp & Dohme, published 2025)

Biological target: mouse αvβ3 integrin on CHOK1 stable cells (mouse, UniProt P43406 31-1044; O54890 26-787)
Assay: cell-based or functional assay

Sequence of mouse αvβ3 integrin on CHOK1 stable cells (P43406 31-1044, chain 1 of 2): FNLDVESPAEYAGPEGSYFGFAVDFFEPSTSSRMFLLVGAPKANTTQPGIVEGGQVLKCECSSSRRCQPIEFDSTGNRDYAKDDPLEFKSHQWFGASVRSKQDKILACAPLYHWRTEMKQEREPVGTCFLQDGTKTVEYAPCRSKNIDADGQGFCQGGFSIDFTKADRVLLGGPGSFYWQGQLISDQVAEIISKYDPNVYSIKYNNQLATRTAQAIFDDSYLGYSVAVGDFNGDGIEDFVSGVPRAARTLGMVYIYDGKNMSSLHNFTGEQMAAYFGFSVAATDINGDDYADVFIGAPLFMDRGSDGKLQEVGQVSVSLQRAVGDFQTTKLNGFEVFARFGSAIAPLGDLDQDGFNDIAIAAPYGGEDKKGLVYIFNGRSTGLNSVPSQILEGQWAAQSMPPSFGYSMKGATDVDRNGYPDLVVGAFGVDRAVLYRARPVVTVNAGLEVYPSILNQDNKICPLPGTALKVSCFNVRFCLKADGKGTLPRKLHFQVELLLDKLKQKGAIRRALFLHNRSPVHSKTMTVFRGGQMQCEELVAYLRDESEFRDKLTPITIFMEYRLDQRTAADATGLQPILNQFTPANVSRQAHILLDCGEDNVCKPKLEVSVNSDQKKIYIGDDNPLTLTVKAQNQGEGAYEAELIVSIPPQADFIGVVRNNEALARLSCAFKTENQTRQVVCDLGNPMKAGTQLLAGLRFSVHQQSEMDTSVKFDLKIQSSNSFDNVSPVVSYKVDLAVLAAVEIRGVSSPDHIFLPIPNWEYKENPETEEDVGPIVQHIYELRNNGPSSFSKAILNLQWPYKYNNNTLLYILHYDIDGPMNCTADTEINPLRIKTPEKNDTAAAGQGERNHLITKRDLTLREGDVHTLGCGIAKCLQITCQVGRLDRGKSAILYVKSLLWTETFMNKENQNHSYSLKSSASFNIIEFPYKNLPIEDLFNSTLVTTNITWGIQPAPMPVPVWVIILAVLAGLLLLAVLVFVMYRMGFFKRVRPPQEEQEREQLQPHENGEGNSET
Sequence of mouse αvβ3 integrin on CHOK1 stable cells (O54890 26-787, chain 2 of 2): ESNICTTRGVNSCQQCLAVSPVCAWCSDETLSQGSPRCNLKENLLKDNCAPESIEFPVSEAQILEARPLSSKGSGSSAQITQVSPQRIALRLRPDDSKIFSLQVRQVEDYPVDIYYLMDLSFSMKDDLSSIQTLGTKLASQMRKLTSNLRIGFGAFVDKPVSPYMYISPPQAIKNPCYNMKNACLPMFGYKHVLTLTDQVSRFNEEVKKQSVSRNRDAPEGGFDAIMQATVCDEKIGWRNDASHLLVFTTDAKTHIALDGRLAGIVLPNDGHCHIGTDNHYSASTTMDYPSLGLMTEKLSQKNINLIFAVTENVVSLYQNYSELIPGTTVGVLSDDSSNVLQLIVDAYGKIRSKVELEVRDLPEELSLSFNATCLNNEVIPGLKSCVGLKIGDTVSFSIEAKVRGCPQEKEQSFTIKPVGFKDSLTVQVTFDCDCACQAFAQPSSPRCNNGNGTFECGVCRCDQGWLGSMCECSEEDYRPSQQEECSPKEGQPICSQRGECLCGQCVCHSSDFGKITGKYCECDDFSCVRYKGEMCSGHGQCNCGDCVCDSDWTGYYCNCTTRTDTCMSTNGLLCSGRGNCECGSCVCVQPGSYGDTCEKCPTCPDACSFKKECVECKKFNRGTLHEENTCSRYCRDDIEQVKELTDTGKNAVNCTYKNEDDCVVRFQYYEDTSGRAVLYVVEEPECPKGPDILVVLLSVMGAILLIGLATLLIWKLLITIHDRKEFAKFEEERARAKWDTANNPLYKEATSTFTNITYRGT

B1: Ab-31 (antibody, V domains shown)
VH: EVQLQESGPGLVKPSETLSLTCAVSGYSISSGYYWGWIRQPPGKGLEWIGSIYHSGNTYYNPSLKSRVTISVDTSKNQFSLKLSSVTAADTAVYYCARVPRYSRGDAYYYYGMDVWGQGTTVTVSS
VL: DIQMTQSPSTLSASVGDRVTITCRASQSIGSWLAWYQQKPGKAPKLLIYKASSLESGVPSRFSGSGSGTEFTLTISSLQPDDFATYYCQQSGPYPWTFGGGTKVEIK
IC50 of inhibition of adhesion of CHOK1-mαvβ3 cells to vitronectin matrix: 1 nM
